# T1: 人IL7 protein (human, UniProt P13232 26-177)
# T1 construct: also called 人IL7蛋白
# T1 sequence (looked up): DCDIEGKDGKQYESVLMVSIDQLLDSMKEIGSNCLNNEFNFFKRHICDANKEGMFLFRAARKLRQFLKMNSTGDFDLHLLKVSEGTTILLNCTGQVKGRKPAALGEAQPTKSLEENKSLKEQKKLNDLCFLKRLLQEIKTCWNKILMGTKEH
# Assays:
# [1] = biological target: T2, 人TSLP (human thymic stromal lymphopoietin) protein (human, UniProt Q969D9 29-159); assay: BLI (Fortebio), antibody captured on AMC probe, 100nM TSLP, 1:1 fit
# T2 construct: also called hTSLP; 人TSLP蛋白
# [2] = biological target: T2, 人TSLP (human thymic stromal …); assay: BLI (Fortebio), method of Example 2, antibody on probe, TSLP in solution
# [3] = biological target: T1, 人IL7 protein; assay: ELISA, IL7 coated at 1ug/ml, HRP-goat anti-human IgG
# [4] = biological target: T2, 人TSLP (human thymic stromal …); assay: BLI (Fortebio), method of Example 2, antibody on probe, TSLP in solution; remark: listed apart in the source
Binder,Kd [1],koff [1],kon [1],Kd [2],koff [2],kon [2],binding result [3],Kd [4],Response [4],koff [4],kon [4]
"IgG D01 (murine anti-human TSLP monoclonal antibody, clone D01) (antibody, V domains shown, Murine hybridoma IgG, kappa light chain amplified; also called 克隆D01) VH: QVQLQQSGAELVRPGTSVKVSCKASGYAFTNYFIDWVKQRPGQGLEWIGVINPGSGGTNFNEKFKGKATLTADKSSSTAYMQLSSLTSEDSAVYFCARESEVGEGFAYWGQGTLVTVSA VL: DIQMTQTSSSLSASLGDRVTISCRASQDISNYLNWYQQKPDGTVKLLIYYTSTLHSGVPSRFSGSGSGTDYSLTISNLEQEDIATYFCQQGNTLPYTFGGGTKLEIK",2830 pM,0.000225 s⁻¹,79600 M⁻¹ s⁻¹,–,–,–,–,–,–,–,–
"xiD01 (anti-human TSLP chimeric antibody) (antibody, human IgG2, V domains shown, also called 抗人TSLP嵌合抗体蛋白xiD01; not shown: human kappa light chain constant region) VH: QVQLQQSGAELVRPGTSVKVSCKASGYAFTNYFIDWVKQRPGQGLEWIGVINPGSGGTNFNEKFKGKATLTADKSSSTAYMQLSSLTSEDSAVYFCARESEVGEGFAYWGQGTLVTVSA VL: DIQMTQTSSSLSASLGDRVTISCRASQDISNYLNWYQQKPDGTVKLLIYYTSTLHSGVPSRFSGSGSGTDYSLTISNLEQEDIATYFCQQGNTLPYTFGGGTKLEIK",–,–,–,985 pM,0.000356 s⁻¹,361000 M⁻¹ s⁻¹,–,–,–,–,–
"hzD01Hm5Lm4 (humanized, affinity-matured anti-human TSLP antibody) (antibody, human IgG2, V domains shown, not shown: human kappa light chain constant region) VH: EVQLVQSGAEVKKPGASVKVSCKASGYTFTNYFIDWVRQAPGQGLEWIGVIDAFSGGSNFNEKFKGRVTMTRDTSTSTAYMELSSLRSEDTAVYFCARESEVGEGFAYWGQGTLVTVSS VL: DIQMTQSPSSLSASVGDRVTISCRASQDISNYLNWYQQKPGKAPKLLIYYTSTLHSGVPSRFSGSGSGTDYTLTISSLQPEDIATYFCQQGNTLPYTFGQGTKLEIK",–,–,–,–,–,–,no binding,63.7 pM,0.368,3.98e-05 s⁻¹,625000 M⁻¹ s⁻¹
"hzD01Lm12 (humanized, affinity-matured anti-human TSLP antibody) (antibody, human IgG2, V domains shown, also called hzD01m12; not shown: human kappa light chain constant region) VH: EVQLVQSGAEVKKPGASVKVSCKASGYTFTNYFIDWVRQAPGQGLEWIGVINPGSGGTNFNEKFKGRVTMTRDTSTSTAYMELSSLRSEDTAVYFCARESEVGEGFAYWGQGTLVTVSS VL: DIQMTQSPSSLSASVGDRVTISCRASQDISNYLNWYQQKPGKAPKLLIYYTSTLHSGVPSRFSGSGSGTDYTLTISSLQPEDIATYFCQQFDTLPYPFGQGTKLEIK",–,–,–,–,–,–,no binding,98.3 pM,0.426,6.08e-05 s⁻¹,619000 M⁻¹ s⁻¹

# Source: patent CN113388035A (MABWELL SHANGHAI BIOTECHNOLOGY CO LTD; SHANGHAI PUMING …, dated 2021)
